To fix the notation:
B1: Azoarcus group I ribozyme (parent)
chain: GUGCCUUGCGCCGGGAAACCACGCAAGGGAUGGUGUCAAAUUCGGCGAAACCUAAGCGCCCGCCCGGGCGUAUGGCAACGCCGAGCCAAGCUUCGGCGCCUGCGCCGAUGAAGGUGUAGAGACUAGACGGCACCCACCUAAGGCAAACGCUAUGGUGAAGGCAUAGUCCAGGGAGUGGCGAAAGUCACACAAACCGG

The variants in the series derive from B1. Kind of series: reverse-splicing fitness (ratio to wild type); higher = more active; in vitro selection; Mg2+ level not given. The gist of the method:
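An in vitro group I ribozyme library with randomized positions was T7-transcribed and gel-purified. In triplicate, 10 pmol RNA in EPPS pH 7.5 was reacted with 50 pmoles of a 30-nt RNA substrate for 1 h at 37 °C across several added MgCl2 levels (1–48 mM), then stopped with EDTA. Products were reverse transcribed from a substrate-complementary primer, PCR-amplified and sequenced (HiSeq 4000). Fitness is a variant's read proportion after selection over that before, normalised to wild type.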
GUGCCUUGCGCCGGGAAACCACGCAAGGGAUGGUGUCAAAUUCGGCGAAACCUAAGCGCCCGCCCGGGCGUAUGGCAACGCAGAGCCAAGCUUCGGCGCCUGCGCCGAUGUAGGUGUAGCGACUAGACGGCACCCACCUAAGGCAAACGGUAUGGUGAAGGCAUAGUCCAGGGAGGGGCGAAAGUCACACAAACCGG [C82A A111U A120C C150G U176G]: the reverse-splicing fitness was 0.00421.
With GUGCCUUGCGCCGGGAAACCACGCAAGGGAUGGUGUCAAAUUCGGCGAAACCUAAGCGCCCGCCCGGGCGUAUGGCAACGCAGAGCCAAGCUUCGGCGCCUGCGCCGAUGUAGGUGUAGCGACUAGACGGCACCCACCUAAGGCAAACGCUAUGGUGAAGGCAUAGUCGAGGGAGGGGCGAAAGUCACACAAACCGG [C82A A111U A120C C169G U176G] the figure was 0.00706; with GUGCCUUGCGCCGGGAAACCACGCAAGGGAUGGUGUCAAAUUCGGCGAAACCUAAGCGCCCGCCCGGGCGUAUGGCAACGCAGAGCCAAGCUUCGGCGCCUGCGCCGAUGUAGGUGUAGCGACUAGACGGCACCCACCUAAGGCAAACGCUAUGGUGAAGGCAUAGUCGAGGGAGAGGCGAAAGUCACACAAACCGG [C82A A111U A120C C169G U176A], 0.0231.
In the case of GUGCCUUGCGCCGGGAAACCACGCAAGGGAUGGUGUCAAAUUCGGCGAAACCUAAGCGCCCGCCCGGGCGUAUGGCAACGCAGAGCCAAGCUUCGGCGCCUGCGCCGAUGUAGGUGUAGCGACUAGACGGCACCCACCUAAGGCAAACGCUAUGGUGAAGGCAUAGUCGAGGGAGCGGCGAAAGUCACACAAACCGG [C82A A111U A120C C169G U176C] it was 0.0298.
In the case of GUGCCUUGCGCCGGGAAACCACGCAAGGGAUGGUGUCAAAUUCGGCGAAACCUAAGCGCCCGCCCGGGCGUAUGGCAACGCAGAGCCAAGCUUCGGCGCCUGCGCCGAUGUAGGUGUAGCGACUAGACGGCACCCACCUAAGGCAAACGUUAUGGUGAAGGCAUAGUCGAGGGAGUGGCGAAAGUCACACAAACCGG [C82A A111U A120C C150U C169G] it was 0.00831.
On to GUGCCUUGCGCCGGGAAACCACGCAAGGGAUGGUGUCAAAUUCGGCGAAACCUAAGCGCCCGCCCGGGCGUAUGGCAACGCAGAGCCAAGCUUCGGCGCCUGCGCCGAUGUAGGUGUAGCGACUAGACGGCACCCACCUAAGGCAAACGUUAUGGUGAAGGCAUAGUCUAGGGAGUGGCGAAAGUCACACAAACCGG [C82A A111U A120C C150U C169U], for which the reverse-splicing fitness turned out to be 0.0121.
With GUGCCUUGCGCCGGGAAACCACGCAAGGGAUGGUGUCAAAUUCGGCGAAACCUAAGCGCCCGCCCGGGCGUAUGGCAACGCAGAGCCAAGCUUCGGCGCCUGCGCCGAUGUAGGUGUAGCGACUAGACGGCACCCACCUAAGGCAAACGUUAUGGUGAAGGCAUAGUCAAGGGAGUGGCGAAAGUCACACAAACCGG [C82A A111U A120C C150U C169A], the reverse-splicing fitness worked out at 0.0109.
As for GUGCCUUGCGCCGGGAAACCACGCAAGGGAUGGUGUCAAAUUCGGCGAAACCUAAGCGCCCGCCCGGGCGUAUGGCAACGCAGAGCCAAGCUUCGGCGCCUGCGCCGAUGUAGGUGUAGCGACUAGACGGCACCCACCUAAGGCAAACGUUAUGGUGAAGGCAUAGUCCAGGGAGUGGCGAAAGUCACACAAACCGG [C82A A111U A120C C150U], the reverse-splicing fitness stood at 0.0206.
In the case of GUGCCUUGCGCCGGGAAACCACGCAAGGGAUGGUGUCAAAUUCGGCGAAACCUAAGCGCCCGCCCGGGCGUAUGGCAACGCAGAGCCAAGCUUCGGCGCCUGCGCCGAUGUAGGUGUAGCGACUAGACGGCACCCACCUAAGGCAAACGCUAUGGUGAAGGCAUAGUCAAGGGAGGGGCGAAAGUCACACAAACCGG [C82A A111U A120C C169A U176G] it was 0.00734; in that of GUGCCUUGCGCCGGGAAACCACGCAAGGGAUGGUGUCAAAUUCGGCGAAACCUAAGCGCCCGCCCGGGCGUAUGGCAACGCAGAGCCAAGCUUCGGCGCCUGCGCCGAUGUAGGUGUAGCGACUAGACGGCACCCACCUAAGGCAAACGCUAUGGUGAAGGCAUAGUCAAGGGAGAGGCGAAAGUCACACAAACCGG [C82A A111U A120C C169A U176A], 0.0222.
In the case of GUGCCUUGCGCCGGGAAACCACGCAAGGGAUGGUGUCAAAUUCGGCGAAACCUAAGCGCCCGCCCGGGCGUAUGGCAACGCAGAGCCAAGCUUCGGCGCCUGCGCCGAUGUAGGUGUAGCGACUAGACGGCACCCACCUAAGGCAAACGCUAUGGUGAAGGCAUAGUCAAGGGAGCGGCGAAAGUCACACAAACCGG [C82A A111U A120C C169A U176C] it was 0.0277; in that of GUGCCUUGCGCCGGGAAACCACGCAAGGGAUGGUGUCAAAUUCGGCGAAACCUAAGCGCCCGCCCGGGCGUAUGGCAACGCAGAGCCAAGCUUCGGCGCCUGCGCCGAUGUAGGUGUAGCGACUAGACGGCACCCACCUAAGGCAAACGCUAUGGUGAAGGCAUAGUCGAGGGAGUGGCGAAAGUCACACAAACCGG [C82A A111U A120C C169G], 0.00957.
For GUGCCUUGCGCCGGGAAACCACGCAAGGGAUGGUGUCAAAUUCGGCGAAACCUAAGCGCCCGCCCGGGCGUAUGGCAACGCAGAGCCAAGCUUCGGCGCCUGCGCCGAUGUAGGUGUAGCGACUAGACGGCACCCACCUAAGGCAAACGCUAUGGUGAAGGCAUAGUCAAGGGAGUGGCGAAAGUCACACAAACCGG [C82A A111U A120C C169A], the reverse-splicing fitness was determined as 0.00982.
For the variant GUGCCUUGCGCCGGGAAACCACGCAAGGGAUGGUGUCAAAUUCGGCGAAACCUAAGCGCCCGCCCGGGCGUAUGGCAACGCAGAGCCAAGCUUCGGCGCCUGCGCCGAUGUAGGUGUAGCGACUAGACGGCACCCACCUAAGGCAAACGCUAUGGUGAAGGCAUAGUCUAGGGAGUGGCGAAAGUCACACAAACCGG [C82A A111U A120C C169U], the reverse-splicing fitness worked out at 0.0143.
In the case of GUGCCUUGCGCCGGGAAACCACGCAAGGGAUGGUGUCAAAUUCGGCGAAACCUAAGCGCCCGCCCGGGCGUAUGGCAACGCAGAGCCAAGCUUCGGCGCCUGCGCCGAUGUAGGUGUAGCGACUAGACGGCACCCACCUAAGGCAAACGUUAUGGUGAAGGCAUAGUCCAGGGAGGGGCGAAAGUCACACAAACCGG [C82A A111U A120C C150U U176G], the reverse-splicing fitness was determined as 0.00805.

The values above are taken from the RNAGym collection of RNA variant scans (doi:10.1093/molbev/msab373).
